# From publication PMC3401385 (Cell Reports, 2012)
# B1: eIF5 (protein)
# chain: MSINICRDNHDPFYRYKMPPIQAKVEGRGNGIKTAVLNVADISHALNRPAPYIVKYFGFELGAQTSISVDKDRYLVNGVHEPAKLQDVLDGFINKFVLCGSCKNPETEIIITKDNDLVRDCKACGKRTPMDLRHKLSSFILKNPPDSVSGSKKKKKAATASANVRGGGLSISDIAQGKSQNAPSDGTGSSTPQHHDEDEDELSRQIKAAASTLEDIEVKDDEWAVDMSEEAIRARAKELEVNSELTQLDEYGEWILEQAGEDKENLPSDVELYKKAAELDVLNDPKIGCVLAQCLFDEDIVNEIAEHNAFFTKILVTPEYEKNFMGGIERFLGLEHKDLIPLLPKILVQLYNNDIISEEEIMRFGTKSSKKFVPKEVSKKVRRAAKPFITWLETAESDDDEEDDE
# B2: eIF5 CTD (protein)
# chain: VNSELTQLDEYGEWILEQAGEDKENLPSDVELYKKAAELDVLNDPKIGCVLAQCLFDEDIVNEIAEHNAFFTKILVTPEYEKNFMGGIERFLGLEHKDLIPLLPKILVQLYNNDIISEEEIMRFGTKSSKKFVPKEVSKKVRRAAKPFITWLETAESDDDEEDDE
# B3: eIF2β-K2K3 (eIF2β residues 53-135, with the K2 and K3 lysine boxes) (domain or fragment, UniProt P20042 53-135, looked up)
# chain: DLEADEEDTRKKDASDDLDDLNFFNQKKKKKKTKKIFDIDEAEEGVKDLKIESDVQEPTEPEDDLDIMLGNKKKKKKNVKFPD
# Key:
# eIF2 ternary complex = target: T1, eIF2 ternary complex (Saccharomyces cerevisiae, UniProt P20459)
# T1 chain 1: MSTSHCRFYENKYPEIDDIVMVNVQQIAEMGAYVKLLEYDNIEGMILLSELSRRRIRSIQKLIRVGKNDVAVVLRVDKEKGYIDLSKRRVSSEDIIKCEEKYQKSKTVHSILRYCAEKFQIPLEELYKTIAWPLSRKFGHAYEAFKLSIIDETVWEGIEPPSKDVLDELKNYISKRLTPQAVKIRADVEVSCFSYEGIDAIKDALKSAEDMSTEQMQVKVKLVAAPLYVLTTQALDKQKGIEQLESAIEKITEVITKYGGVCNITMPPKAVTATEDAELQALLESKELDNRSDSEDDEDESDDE
# T1 chain 2: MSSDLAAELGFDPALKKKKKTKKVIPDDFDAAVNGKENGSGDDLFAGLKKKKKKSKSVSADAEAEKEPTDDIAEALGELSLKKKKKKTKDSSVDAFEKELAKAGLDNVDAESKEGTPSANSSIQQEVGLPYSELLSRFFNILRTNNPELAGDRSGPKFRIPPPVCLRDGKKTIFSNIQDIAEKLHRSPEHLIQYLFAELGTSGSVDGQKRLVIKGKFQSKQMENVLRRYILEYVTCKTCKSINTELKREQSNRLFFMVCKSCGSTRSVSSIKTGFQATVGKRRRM
# T1 chain 3: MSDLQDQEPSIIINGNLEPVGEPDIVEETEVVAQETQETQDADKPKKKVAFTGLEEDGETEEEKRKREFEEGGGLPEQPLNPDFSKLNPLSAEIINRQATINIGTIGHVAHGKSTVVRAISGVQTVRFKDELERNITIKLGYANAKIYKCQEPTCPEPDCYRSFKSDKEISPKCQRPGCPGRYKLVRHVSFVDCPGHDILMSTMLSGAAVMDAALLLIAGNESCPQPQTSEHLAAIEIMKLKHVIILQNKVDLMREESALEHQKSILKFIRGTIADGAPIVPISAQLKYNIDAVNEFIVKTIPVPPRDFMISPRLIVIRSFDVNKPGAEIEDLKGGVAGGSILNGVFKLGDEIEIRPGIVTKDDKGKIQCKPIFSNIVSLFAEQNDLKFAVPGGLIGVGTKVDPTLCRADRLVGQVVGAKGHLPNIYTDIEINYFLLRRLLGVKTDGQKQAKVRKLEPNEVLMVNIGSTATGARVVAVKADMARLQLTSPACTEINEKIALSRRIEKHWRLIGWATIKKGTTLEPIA
# eIF2β K2K3 = target: T2, eIF2β K2K3 (Saccharomyces cerevisiae, UniProt P09064); assay: ITC
# T2 chain: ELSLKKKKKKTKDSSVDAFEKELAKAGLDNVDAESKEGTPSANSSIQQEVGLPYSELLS
# [1] = target: human eIF5-CTD (carboxyl-terminal domain of eukaryotic initiation factor 5), wild type (human, UniProt P55010 225-407); assay: ITC
# Chain of human eIF5-CTD (carboxyl-terminal domain of eukaryotic initiation factor 5), wild type (P55010 225-407): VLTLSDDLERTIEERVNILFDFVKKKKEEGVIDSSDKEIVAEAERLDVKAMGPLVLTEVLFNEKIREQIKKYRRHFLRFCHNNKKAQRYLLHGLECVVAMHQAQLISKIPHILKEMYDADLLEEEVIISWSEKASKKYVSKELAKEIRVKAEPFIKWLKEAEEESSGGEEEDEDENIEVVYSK
binder,measurement,setting,value
B1,Kd,eIF2 ternary complex,0.1 µM
B2,Kd,eIF2β K2K3,~4 µM
B3,Kd,[1],~4 µM
